Laboratory results taken from the supplement of paper PMC12764529.
± gives the half width of the 95% confidence interval.

What was measured:
[1] = folding stability dG unfold from trypsin proteolysis; higher = more stable
Method in brief: (§1)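 Unfolding free energy was derived, per protease or combined, by relating Bayesian-fitted K50 values from sequencing counts to a sequence-predicted unfolded-state K50 and a shared folded-state K50. The underlying digests exposed cysteine-free mini-proteins under 80 residues, in a PA-tagged cDNA display construct, to trypsin and chymotrypsin at 11 threefold-diluted concentrations and to a no-protease condition. A filter kept only designs with AlphaFold2 dimer inter-PAE above 15.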

[2] = folding stability dG unfold from chymotrypsin proteolysis; higher = more stable
Method in brief: as §1

[3] = folding stability dG unfold (combined trypsin and chymotrypsin); higher = more stable
Method in brief: as §1

SMKPGEKLEIEVEIKVEEEDEEKRKKALEEAEEKLRELFEKLGLKDIKKVEVVEVEKLPDGTVKVKIRIDSA [r9_754_TrROS_Hall]
folding stability dG unfold [1]: 2.39 ± 0.18 kcal/mol
folding stability dG unfold [2]: 1.32 ± 0.11 kcal/mol
folding stability dG unfold [3]: 1.71 ± 0.24 kcal/mol

SMKPGELVLVTETETRTFTVTPEDLPPGWKVKEVKVTVTRVALFRVTPDGRVELVEEVTSVEIEVTLEPESA [r9_747_TrROS_Hall]
folding stability dG unfold [1]: 4.39 ± 0.42 kcal/mol
folding stability dG unfold [2]: 4.54 ± 0.1 kcal/mol
folding stability dG unfold [3]: 4.52 ± 0.22 kcal/mol

SMKPGETVRVTFKTKDGSKIEIEFKNGKPVRITVYNKNGEKVKEIEVTLDELKELAEKLGIEEIVEVEKVSA [r9_1107_TrROS_Hall]
folding stability dG unfold [1]: 2.76 ± 0.19 kcal/mol
folding stability dG unfold [2]: 3.44 ± 0.077 kcal/mol
folding stability dG unfold [3]: 3.26 ± 0.35 kcal/mol

SMKTITIPADTLSPEEIEALLKELGFDPEKIKISTEGDKLVVTVPDMIVFLTPPPPVPTVPPTNPERLAALS [r1_57_JUSTAS]
folding stability dG unfold [1]: 0.643 ± 0.036 kcal/mol
folding stability dG unfold [2]: -0.141 ± 0.36 kcal/mol
folding stability dG unfold [3]: 0.31 ± 0.15 kcal/mol

SMKTKTVTLDLSPEDPEAARAAVEAAIAEARAADPDTEVTVTVTISPEHPELLAEIEALAAERGVSLVLGSA [r9_1202_JUSTAS]
folding stability dG unfold [1]: 2.74 ± 0.058 kcal/mol
folding stability dG unfold [2]: 2.84 ± 0.06 kcal/mol
folding stability dG unfold [3]: 2.81 ± 0.097 kcal/mol

SMKTVTLNFPSLSEEEVRALAEELEATGRYRVEKIDSSTPNIKVTVLEEPPEPRPPPPPALVRDADARAASA [r9_830_JUSTAS]
folding stability dG unfold [1]: 1.08 ± 0.088 kcal/mol
folding stability dG unfold [2]: 1.83 ± 0.12 kcal/mol
folding stability dG unfold [3]: 1.4 ± 0.12 kcal/mol

SMKVERERRTIERTLPDGRKVKVEIDLFRPEDGKPWALIKITVTDENGVPTEREILAPAELAEKVIEELFSA [r9_189_TrMRF]
folding stability dG unfold [1]: 2.34 ± 0.055 kcal/mol
folding stability dG unfold [2]: 1.78 ± 0.039 kcal/mol
folding stability dG unfold [3]: 2.08 ± 0.069 kcal/mol

SMKVIIIERPDESGVPVVIVLPEEEALELYRKLFNVPMSVEEFAEKLKELNPNVKVEVVPLEEVSEEVLLSA [r9_1085_JUSTAS]
folding stability dG unfold [1]: 2.23 ± 0.086 kcal/mol
folding stability dG unfold [2]: 2.28 ± 0.058 kcal/mol
folding stability dG unfold [3]: 2.35 ± 0.18 kcal/mol

SMKVKPGEKIKVTVLALFYDKETKKLYLVKAEVEATVELDEDGNLTVKVEVKKVEVVEEMPLDELKELLKSA [r9_423_TrROS_Hall]
folding stability dG unfold [1]: 2.29 ± 0.14 kcal/mol
folding stability dG unfold [2]: 3.4 ± 0.067 kcal/mol
folding stability dG unfold [3]: 2.97 ± 0.18 kcal/mol

SMKVVKLYTDPEGRVVIEITLPKPDGTPVSEEEAKAIADEIAAELKPKYPNATFEITYDPKTGVVTITIGSA [r9_485_JUSTAS]
folding stability dG unfold [1]: 3.49 ± 0.13 kcal/mol
folding stability dG unfold [2]: 2.51 ± 0.053 kcal/mol
folding stability dG unfold [3]: 2.97 ± 0.1 kcal/mol

SMLKPGDIVKLPNGPIYVVKKLTISYDPSTSPPKLELELVPLGEPKPVLKEYTLPDGSTKTEIGYYWTGPSA [r9_914_TrMRF]
folding stability dG unfold [1]: 0.922 ± 0.031 kcal/mol
folding stability dG unfold [2]: 0.995 ± 0.11 kcal/mol
folding stability dG unfold [3]: 0.98 ± 0.12 kcal/mol

SMLNPDDPSVPERLVLVIPVPEEAVENGDFEVVRAKVEEAAEELEPLGWRVVSVEFDTETKEARLVLERPSA [r9_75_TrMRF]
folding stability dG unfold [1]: 3.76 ± 0.07 kcal/mol
folding stability dG unfold [2]: 3.506 ± 0.021 kcal/mol
folding stability dG unfold [3]: 3.617 ± 0.032 kcal/mol

SMLPLLPPRRLLIEVVFPLPEDATPEQLELAERAAEALADVLEALGFKDVRVLVEPTDPGDVLILAEVEASA [r9_865_TrMRF]
folding stability dG unfold [1]: 1.49 ± 0.023 kcal/mol
folding stability dG unfold [2]: 1.97 ± 0.034 kcal/mol
folding stability dG unfold [3]: 1.82 ± 0.074 kcal/mol

SMLTITDENGNTITLPAAGEPVTLTVEIEVDGYTVTVEITFDADTKKITIKVEVTNPNGEKQTFTFTFDLSA [r9_1073_TrROS_Hall]
folding stability dG unfold [1]: 2.92 ± 0.12 kcal/mol
folding stability dG unfold [2]: 4.23 ± 0.083 kcal/mol
folding stability dG unfold [3]: 3.84 ± 0.16 kcal/mol

SMLVSVTFPLTLEPEEGDHTVRIYATAPDGSSLGEVTAPVKAVGDKVEFEVTATFPLPEGAVIERIETEPSA [r9_292_TrMRF]
folding stability dG unfold [1]: 0.681 ± 0.025 kcal/mol
folding stability dG unfold [2]: 0.857 ± 0.12 kcal/mol
folding stability dG unfold [3]: 0.869 ± 0.084 kcal/mol

SMPAEMSPEEVREAVRALVEEALAANPGEPVTVPIEEIRAALPGYSPEVLREVLGLTEEEIAAGPVTLRLSA [r9_525_JUSTAS]
folding stability dG unfold [1]: 0.885 ± 0.042 kcal/mol
folding stability dG unfold [2]: -0.45 ± 0.35 kcal/mol
folding stability dG unfold [3]: 0.483 ± 0.12 kcal/mol

SMPEIKVEKKNGKLTITVPKGAKIKIKIEVNGKKIEKEVEVKEGETVTITIELPPNMPKDVKIKEIEIEKSA [r9_1152_TrROS_Hall]
folding stability dG unfold [1]: 1.61 ± 0.066 kcal/mol
folding stability dG unfold [2]: 1.93 ± 0.13 kcal/mol
folding stability dG unfold [3]: 1.88 ± 0.13 kcal/mol

SMPEKYIVRVEVRGRDGKTVTFEAEATVDSSDFDDFIEAILEAPGLEDADEVRFYVYRLGTGRPEEFTVPSA [r9_97_TrMRF]
folding stability dG unfold [1]: 2.01 ± 0.069 kcal/mol
folding stability dG unfold [2]: 3.03 ± 0.06 kcal/mol
folding stability dG unfold [3]: 2.7 ± 0.069 kcal/mol

SMPEVRVEEVTIELEFTLPDGRTVRVEIRLTRVTLPDGRVFTRLEIKVEVPEEDEEARKLLKELLEELLSSA [r9_908_TrROS_Hall]
folding stability dG unfold [1]: 4.52 ± 0.14 kcal/mol
folding stability dG unfold [2]: 4.75 ± 0.13 kcal/mol
folding stability dG unfold [3]: 4.69 ± 0.12 kcal/mol

SMPGVRVRLYTVRVKTPEGGELTAPIAVPAELFTEEEIRELVREAFPDAEDVEIEPAVLELPPAPGLLTASA [r9_841_TrMRF]
folding stability dG unfold [1]: 1.39 ± 0.034 kcal/mol
folding stability dG unfold [2]: 1.31 ± 0.1 kcal/mol
folding stability dG unfold [3]: 1.43 ± 0.079 kcal/mol

SMPLIIIAKKNKDGTGTILIKKGDKVIEIEFEKNIKPEELKKKAIETALTLKKKTEELGIPIEIKEIIFESA [r9_751_TrMRF]
folding stability dG unfold [1]: 1.77 ± 0.082 kcal/mol
folding stability dG unfold [2]: 2.23 ± 0.077 kcal/mol
folding stability dG unfold [3]: 2.1 ± 0.091 kcal/mol
